These results are taken from PMC1669725.

The series addresses Sp1 zinc-finger DNA-binding domain (truncated Sp1) (UniProt P08047 619-774). The series is described as follows: fluorescence correlation spectroscopy.

Sp1 zinc-finger DNA-binding domain (truncated Sp1), sequence (P08047 619-774): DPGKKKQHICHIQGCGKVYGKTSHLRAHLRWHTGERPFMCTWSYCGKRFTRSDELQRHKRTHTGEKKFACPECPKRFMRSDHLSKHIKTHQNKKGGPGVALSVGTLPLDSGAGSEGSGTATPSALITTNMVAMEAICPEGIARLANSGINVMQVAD

B1: HIV LTR Sp1 site 23 bp (dsDNA)
DNA 1: ACTTTCCAGGGAGGCGTGGCCTG
DNA 2: CAGGCCACGCCTCCCTGGAAAGT
As for B1, the Kd is 32 ± 2 nM.
